Measurements published in the RNAGym collection of RNA variant scans (doi:10.1021/acssynbio.7b00057).

B1: Pistol ribozyme (parent)
chain: GGGUCGUUGUUCCAUAAUCGCGUGGAUAUGGCACGCAAGUUUCUACCGGGCACCGUAAAUGUCCGACUGGAGCCGUUCGGGCGGCUAUAAACAGACCUCAGGCCCGAAGCGUGGCGGCACCUGCCGCCGGUGGUAAAAAAGAUCGGAAGAGCACACGUCU

Variants of: B1
Assay: aptazyme ON/OFF ratio, guanine; higher = stronger switching; co-transcriptional cleavage with and without guanine
For U7G U8C G9A U10A C12U, the “aptazyme ON/OFF ratio” value was 1.62. With U7G U8A U10G C12U C13G the “aptazyme ON/OFF ratio” value was 1.54. In the case of U7G U8A U10G C12U C13U, the “aptazyme ON/OFF ratio” value is reported as 1.12. In the case of U7G U8A U10G C12U C13A, the “aptazyme ON/OFF ratio” value is reported as 1.6. With U7G U8A U10G U11A C12A C13A the “aptazyme ON/OFF ratio” value was 1.47. With U7G U8A U10G U11A C12A C13G the “aptazyme ON/OFF ratio” value was 1.15. With U7G U8A U10G U11A C12A C13U the “aptazyme ON/OFF ratio” value was 1.12. For U7G U8A U10G U11G C12A, the “aptazyme ON/OFF ratio” value was 1.3. For U7G U8A U10G U11G C12G, the “aptazyme ON/OFF ratio” value was 1.5. In the case of U7G U8A U10G U11G C12U, the “aptazyme ON/OFF ratio” value is reported as 1.26. With U7G U8A U11G C12A the “aptazyme ON/OFF ratio” value was 1.45. For U7G U8A U11G C12G, the “aptazyme ON/OFF ratio” value was 1.33. In the case of U7G U8A U11G C12U, the “aptazyme ON/OFF ratio” value is reported as 1.25. With U7G U8A U10C U11C C12G the “aptazyme ON/OFF ratio” value was 1.29. With U7G U8A U10C U11C C12U the “aptazyme ON/OFF ratio” value was 1.31. For U7G U8A U10C U11C C12A, the “aptazyme ON/OFF ratio” value was 1.46. With U7G U8C G9A U10C C12A C13G the “aptazyme ON/OFF ratio” value was 1.14. With U7G U8C G9A U10C C12A C13A the “aptazyme ON/OFF ratio” value was 1.12. With U7G U8C G9A U10C C12A C13U the “aptazyme ON/OFF ratio” value was 1.19. For U7G U8A U10C U11A C13A, the “aptazyme ON/OFF ratio” value was 1.39. With U7G U8A U10C U11A C13G the “aptazyme ON/OFF ratio” value was 1.23. In the case of U7G U8A U10C U11A C13U, the “aptazyme ON/OFF ratio” value is reported as 1.44. For U7G U8C G9A C12U C13G, the “aptazyme ON/OFF ratio” value was 1.02. With U7G U8C G9A C12U C13U the “aptazyme ON/OFF ratio” value was 1.03. With U7G U8C G9A C12U C13A the “aptazyme ON/OFF ratio” value was 1.03. For U7G U8C, the “aptazyme ON/OFF ratio” value was 1.32. With U7G U8A U10G C13A the “aptazyme ON/OFF ratio” value was 1.3. With U7G U8A U10G C13G the “aptazyme ON/OFF ratio” value was 1.32. In the case of U7G U8A U10G C13U, the “aptazyme ON/OFF ratio” value is reported as 1.29. For U7G U8A U10G C12G, the “aptazyme ON/OFF ratio” value was 1.13. In the case of U7G U8A U10G C12U, the “aptazyme ON/OFF ratio” value is reported as 1.17. In the case of U7G U8A U10G C12A, the “aptazyme ON/OFF ratio” value is reported as 1.03. With U7G U8C G9A U10A U11A C13U the “aptazyme ON/OFF ratio” value was 1.21. In the case of U7G U8C G9A U10A U11A C13G, the “aptazyme ON/OFF ratio” value is reported as 1.04. In the case of U7G U8C G9A U10A U11A C13A, the “aptazyme ON/OFF ratio” value is reported as 1.09. In the case of U7G U8A U10G U11A C12G C13G, the “aptazyme ON/OFF ratio” value is reported as 1.25. For U7G U8A U10G U11A C12G C13A, the “aptazyme ON/OFF ratio” value was 1.11. For U7G U8A U10G U11A C12G C13U, the “aptazyme ON/OFF ratio” value was 1.23. With U7G U8A U10C U11A C12U the “aptazyme ON/OFF ratio” value was 1.42. With U7G U8A U10C U11A C12G the “aptazyme ON/OFF ratio” value was 1.54. In the case of U7G U8A U10C U11A C12A, the “aptazyme ON/OFF ratio” value is reported as 1.32. With U7G U8A U10G C12G C13A the “aptazyme ON/OFF ratio” value was 1.25. In the case of U7G U8A U10G C12G C13G, the “aptazyme ON/OFF ratio” value is reported as 1.18. In the case of U7G U8A U10G C12G C13U, the “aptazyme ON/OFF ratio” value is reported as 1.27. With U7G U8C G9A U10C C12U C13U the “aptazyme ON/OFF ratio” value was 1.08. For U7G U8C G9A U10C C12U C13A, the “aptazyme ON/OFF ratio” value was 1.15. With U7G U8C G9A U10C C12U C13G the “aptazyme ON/OFF ratio” value was 1.11. With U7G U8C C13G the “aptazyme ON/OFF ratio” value was 1.07. In the case of U7G U8C C13A, the “aptazyme ON/OFF ratio” value is reported as 1.21. With U7G U8C C13U the “aptazyme ON/OFF ratio” value was 1.46. In the case of U7G U8A U11A C12A, the “aptazyme ON/OFF ratio” value is reported as 1.25. In the case of U7G U8A U11A C12G, the “aptazyme ON/OFF ratio” value is reported as 1.22. With U7G U8A U11A C12U the “aptazyme ON/OFF ratio” value was 1.43. For U7G U8A U10G U11G C12A C13A, the “aptazyme ON/OFF ratio” value was 1.16. For U7G U8A U10G U11G C12A C13G, the “aptazyme ON/OFF ratio” value was 1.38. In the case of U7G U8A U10G U11G C12A C13U, the “aptazyme ON/OFF ratio” value is reported as 1.73. In the case of U7G U8C G9A U10C U11C C12A C13U, the “aptazyme ON/OFF ratio” value is reported as 1.2. With U7G U8C G9A U10C U11C C12A C13G the “aptazyme ON/OFF ratio” value was 1.28. For U7G U8C G9A U10C U11C C12A C13A, the “aptazyme ON/OFF ratio” value was 1.2. With U7G U8C G9A U10A U11A C12G C13G the “aptazyme ON/OFF ratio” value was 1.13. For U7G U8C G9A U10A U11A C12G C13A, the “aptazyme ON/OFF ratio” value was 1.13. With U7G U8C G9A U10A U11A C12G C13U the “aptazyme ON/OFF ratio” value was 1.15. With U7G U8A U10C C12G C13G the “aptazyme ON/OFF ratio” value was 1.17. In the case of U7G U8A U10C C12G C13U, the “aptazyme ON/OFF ratio” value is reported as 1.31. In the case of U7G U8A U11A C12A C13U, the “aptazyme ON/OFF ratio” value is reported as 1.39. In the case of U7G U8A U11A C12A C13A, the “aptazyme ON/OFF ratio” value is reported as 1.35. In the case of U7G U8A U11A C12A C13G, the “aptazyme ON/OFF ratio” value is reported as 1.24. For U7G U8A U10G U11G C12G C13G, the “aptazyme ON/OFF ratio” value was 0.981. For U7G U8A U10G U11G C12G C13U, the “aptazyme ON/OFF ratio” value was 1.7. With U7G U8A U10G U11G C12G C13A the “aptazyme ON/OFF ratio” value was 1.15. With U7G U8A U10G U11A C12G the “aptazyme ON/OFF ratio” value was 1.43. With U7G U8A U10G U11A C12U the “aptazyme ON/OFF ratio” value was 1.23. With U7G U8A U10G U11A C12A the “aptazyme ON/OFF ratio” value was 1.16. With U7G U8C G9A U10A U11G C12G the “aptazyme ON/OFF ratio” value was 1.19. In the case of U7G U8C G9A U10A U11G C12A, the “aptazyme ON/OFF ratio” value is reported as 1.06. For U7G U8C G9A U10A U11G C12U, the “aptazyme ON/OFF ratio” value was 1.26. For U7G U8A U10C U11G C13A, the “aptazyme ON/OFF ratio” value was 1.34. For U7G U8A U10C U11G C13G, the “aptazyme ON/OFF ratio” value was 1.26. For U7G U8A U10C U11G C13U, the “aptazyme ON/OFF ratio” value was 1.41. With U7G U8A U10G U11C C12G C13A the “aptazyme ON/OFF ratio” value was 1.4. With U7G U8A U10G U11C C12G C13U the “aptazyme ON/OFF ratio” value was 1.25. With U7G U8A U10G U11C C12G C13G the “aptazyme ON/OFF ratio” value was 1.26. With U7G U8A U10C U11A C12U C13U the “aptazyme ON/OFF ratio” value was 1.34.
